From patent publication US20120039865A1, “IDENTIFICATION OF SORTILIN AS A NEURONAL RECEPTOR FOR THE FRONTOTEMPORAL DEMENTIA PROTEIN, PROGRANULIN” (Yale University, priority 2008, published 2012) come the findings set out here.

Experiment [1] addresses Rat (Sprague-Dawley) cortical neurons. The experiment is described as follows: AP-tagged ligand binding to cultured rat cortical neurons. Particulars: saturation analysis, FIG. 1D; read-out: affinity of neuronal binding sites for PGRN. How it is done: (§1) Rat (Sprague-Dawley) cortical neurons were isolated from E18 embryos and cultured in vitro for 3-21 days. Cultures were maintained in Neurobasal-A medium supplemented with B27, GLUTAMAX™ (2 mM), sodium pyruvate (1 mM), penicillin, and streptomycin. The binding of 10 nM AP-PGRN or 10 nM AP was detected as a dark reaction product produced by alkaline phosphatase (AP). Binding was measured as follows. The AP tagged ligand (in NBA) was incubated with the cortical neurons for 1 hr at 4° C., washed three times with HBH buffer, fixed with formaldehyde, and after washing again with HBH the neurons were incubated in a 67° C. oven to inactivate the endogenous AP. The tagged AP was then visualized using AP substrate 5-bromo-4-chloro-3-indolyl phosphate/nitro blue tetrazolium, which results in a dark precipitate. […] The addition of 100 nM Flag-PGRN displaced 10 nM AP-PGRN (FIG. 1C, middle panel).

In experiment [2] the test system is mouse E17 cortical neurons. The experiment in a line: AP-PGRN binding to mouse cortical neurons (wild type, sortilin +/- and -/-). The settings on record: 100 nM unlabeled competitor against 5 nM AP-PGRN, 1 hr preincubation. How it is done: as §1
Binding was measured according to the methods described above by preincubating 100 nM PGRN with the cortical neurons for 1 hr and using a 5 nM AP-PGRN and 100 nM untagged PGRN mixture. […]
Gene-targeted sortilin −/− and +/− mice from Anders Nykjaer, M.D., Ph.D., Aarhus University, Aarhus, Denmark, were used to obtain cultures of cortical neurons. The binding of 2 nM AP-PGRN to cortical neurons isolated from sortilin −/− (FIG. 3B, left panel) and +/− (FIG. 3B, right panel) mice was evaluated. […]

Experiment [3] addresses T1, sortilin-1 (Sort1; PGRN-R) (Mus musculus, UniProt Q6PHU5).
T1 construct: host or cells: COS-7 (ATCC No. CRL-1651)
T1 sequence (Q6PHU5 74-825): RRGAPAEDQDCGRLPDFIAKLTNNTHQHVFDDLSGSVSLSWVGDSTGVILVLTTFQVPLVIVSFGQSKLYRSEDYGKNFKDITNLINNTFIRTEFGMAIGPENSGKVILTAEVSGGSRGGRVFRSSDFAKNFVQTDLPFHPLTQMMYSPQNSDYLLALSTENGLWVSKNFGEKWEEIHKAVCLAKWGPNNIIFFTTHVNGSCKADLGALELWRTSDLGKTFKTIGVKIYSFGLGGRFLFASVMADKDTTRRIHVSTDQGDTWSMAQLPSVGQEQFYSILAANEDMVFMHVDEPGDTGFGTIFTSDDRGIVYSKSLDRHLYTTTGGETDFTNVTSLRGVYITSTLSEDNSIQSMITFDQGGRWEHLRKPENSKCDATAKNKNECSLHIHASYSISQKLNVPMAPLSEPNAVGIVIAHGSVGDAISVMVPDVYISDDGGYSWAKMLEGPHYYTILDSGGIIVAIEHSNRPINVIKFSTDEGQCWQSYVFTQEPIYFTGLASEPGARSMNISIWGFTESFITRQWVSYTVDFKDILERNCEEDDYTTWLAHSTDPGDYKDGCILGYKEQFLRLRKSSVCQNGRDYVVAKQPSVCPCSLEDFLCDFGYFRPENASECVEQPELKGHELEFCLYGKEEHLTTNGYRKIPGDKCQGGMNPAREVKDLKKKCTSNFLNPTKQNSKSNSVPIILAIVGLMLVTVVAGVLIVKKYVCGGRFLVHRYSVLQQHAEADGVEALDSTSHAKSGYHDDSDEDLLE
The experiment in a line: AP-PGRN binding to COS-7 cells transfected with Sort1 cDNA. On the procedure:
as §1
To determine the molecular nature of the neuronal binding site of PGRN, expression cloning experiments utilizing AP-PGRN as a tagged ligand were conducted. COS-7 (ATCC No. CRL-1651) cells were transfected with expression vectors containing mouse cDNAs using FUGENE® 6 according to manufacturer's specifications (Roche). […]

The test system of experiment [4] is cortical neurons from E18 rat embryo cerebral cortex. The experiment is described as follows: Apoptosis assay (cleaved caspase 3) in cortical neuron cultures. Format: cell-based. The settings on record: 100 nM, 36 hours, vs vehicle; 7 days in vitro. On the procedure: In order to examine the PGRN-Sort1 interaction and the effects of PGRN on cerebral cortical cultures, apoptosis assays were performed. Cultures of cortical neurons were established from E18 rat embryo cerebral cortex, as described above, and maintained for 7 days in vitro. Then, the cells were exposed to vehicle or 100 nM purified PGRN protein for 36 hours. The cultures were maintained as mentioned above, and Flag-PGRN diluted in PBS or PBS vehicle were incubated in the cultures for 36 h. Thereafter, the cells were fixed with FA 15 mts and stained with anti-cleaved caspase 3 antibody (Cell Signaling) to detect apoptotic cells (FIG. 6A; shown in white) and with DAPI to detect all nuclei (FIG. 6A; shown in gray). […] These finding may relate indirectly to one study of immortalized cells linking PGRN to caspase-mediated cleavage of TDP43 (Zhang, Y. J., et al., J. Neurosci. 27:10530-10534 (2007)).

Experiment [5] deals with Cortical neurons isolated from E18 rat embryos. The experiment is described as follows: Neurite outgrowth assay in cortical neurons. The class given is cell-based. The settings on record: 100 nM, 1 day in vitro, vs vehicle. How it is done: To further examine the PGRN-Sort1 interaction, neurite outgrowth assays were performed. Cortical neurons were isolated from E18 rat embryos and cultured for 1 day in vitro with or without 100 nM purified Flag-PGRN protein, as described above. Neurites were then visualized with an anti-Beta III tubulin (Promega) using an automated image acquisition. Neurite outgrowth analysis was done using ImageXpress (Molecular Devices), and average neurite length was calculated. […] Although this finding differs from a recent report (Van Damme, P., et al., J. Cell Biol. 181:37-41 (2008)), it is possible that cell survival is the primary action of PGRN, and any outgrowth effect is secondary.

Experiment [6] addresses T2, sortilin (Homo sapiens, UniProt Q99523).
T2 sequence (Q99523 78-831): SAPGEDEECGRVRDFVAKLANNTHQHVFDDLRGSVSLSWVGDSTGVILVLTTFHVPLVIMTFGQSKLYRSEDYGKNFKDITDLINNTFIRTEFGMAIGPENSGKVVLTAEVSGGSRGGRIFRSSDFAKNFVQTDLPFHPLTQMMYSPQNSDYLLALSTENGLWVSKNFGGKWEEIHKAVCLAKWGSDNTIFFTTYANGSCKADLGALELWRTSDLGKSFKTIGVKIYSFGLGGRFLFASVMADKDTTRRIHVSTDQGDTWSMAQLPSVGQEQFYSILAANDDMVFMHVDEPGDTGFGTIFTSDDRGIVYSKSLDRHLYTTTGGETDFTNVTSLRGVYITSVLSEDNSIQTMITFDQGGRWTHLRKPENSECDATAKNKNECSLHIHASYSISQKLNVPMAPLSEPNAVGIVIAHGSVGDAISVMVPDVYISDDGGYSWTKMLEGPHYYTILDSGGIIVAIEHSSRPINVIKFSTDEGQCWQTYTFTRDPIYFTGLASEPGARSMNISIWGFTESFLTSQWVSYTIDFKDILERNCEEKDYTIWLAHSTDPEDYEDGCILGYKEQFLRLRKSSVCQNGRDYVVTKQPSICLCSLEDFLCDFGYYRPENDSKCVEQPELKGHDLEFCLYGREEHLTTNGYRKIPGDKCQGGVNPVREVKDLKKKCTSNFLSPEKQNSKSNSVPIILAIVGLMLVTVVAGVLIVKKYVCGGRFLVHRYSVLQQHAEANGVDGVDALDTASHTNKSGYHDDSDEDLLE
The experiment in a line: PGRN binding to sortilin of human origin. The settings on record: data not shown. The source says: The human SorLA expression vector was provided by Anders Nykjaer, M.D., Ph.D., Aarhus University, Aarhus, Denmark (Jacobsen, L., et al., J. Biol. Chem. 276:22788-22796 (2001); Gliemann, J., et al., Biochem J. 381:203-212 (2004); GenBank Accession No. U60975), and the mouse SorCS1 expression vector in pCMV-Sport6 was obtained from Open Biosystems (GenBank Accession No. BC007486). […] A fragment of PGRN, termed PGRN-E in the literature, binds to sortilin with the same affinity as does full length PGRN (data not shown).

In experiment [7] the target is T3, Sort1 (Mus musculus, UniProt Q6PHU5).
T3 construct: Brain lysate was prepared from mouse brain by homogenization in RIPA buffer; from tissue; host or cells: mouse brain lysate (RIPA buffer)
T3 sequence (Q6PHU5 74-825): T1 sequence (Q6PHU5 74-825)
The experiment is described as follows: Affinity chromatography pull-down of Sort1 from brain lysate. The class given is binding. The settings on record: wild type brain lysate or extract. How it is done: For affinity chromatography, glutathione S-transferase (GST) fused to the C-terminal segment of PGRN (amino acids 495 to the end) was produced in E. coli as a 45 kDa protein and then purified on glutathione-sepharose resin. Brain lysate was prepared from mouse brain by homogenization in RIPA buffer and then incubated with the GST-PGRN containing resin. After washing, bound protein was eluted with SDS and analyzed by anti-sortilin immunoblot. […] Thus, it can be unexpectedly concluded from these studies that PGRN and sortilin interact in a ligand/receptor-type complex on the cell surface.

Entries after “also recorded” stand apart in the source; their conditions may differ.

B1: PGRN: progranulin protein; unlabeled/untagged competitor in binding assays, purified Flag-PGRN in Example 2 cultures (protein)
chain: TQCPDGQFCPVACCLDQGGANYSCCNPLLDTWPRITSHHLDGSCQTHGHCPAGYSCLLTVSGTSSCCPFSKGVSCGDGYHCCPQGFHCSADGKSCFQMSDNPLGAVQCPGSQFECPDSATCCIMVDGSWGCCPMPQASCCEDRVHCCPHGASCDLVHTRCVSPTGTHTLLKKFPAQKTNRAVSLPFSVVCPDAKTQCPDDSTCCELPTGKYGCCPMPNAICCSDHLHCCPQDTVCDLIQSKCLSKNYTTDLLTKLPGYPVKEVKCDMEVSCPEGYTCCRLNTGAWGCCPFAKAVCCEDHIHCCPAGFQCHTEKGTCEMGILQVPWMKKVIAPLRLPDPQILKSDTPCDDFTRCPTNNTCCKLNSGDWGCCPIPEAVCCSDNQHCCPQGFTCLAQGYCQKGDTMVAGLEKIPARQTTPLQIGDIGCDQHTSCPVGQTCCPSLKGSWACCQLPHAVCCEDRQHCCPAGYTCNVKARTCEKDVDFIQPPVLLTLGPKVGNVECGEGHFCHDNQTCCKDSAGVWACCPYLKGVCCRDGRHCCPGGFHCSARGTKCLRKKIPRWDMFLRDPVPRPLL
Turning to B1, the Kd in experiment [1] was ~20 nM. Also, the “displacement of AP-PGRN binding” value in experiment [2] is recorded as “displaced”; in experiment [3] (100 nM untagged competitor against 5 nM AP-PGRN), “displaceable”. For the same molecule, in experiment [3] (data not shown), the “binding to sortilin of mouse origin” value was “binds”. In addition, the “number of cells positive for cleaved caspase-3” value in experiment [4] was “less”. Besides, the “cortical neurite outgrowth (βIII tubulin)” value in experiment [5] is on record as “No PGRN-induced change; also recorded: no significant difference”. Moreover, in experiment [6], the “binding to sortilin of human origin” value is listed as “binds”.

B2: GST-PGRN: glutathione S-transferase (GST) fused to the C-terminal segment of PGRN (amino acids 495 to the end), produced in E. coli (protein)
chain: CEKEVVSAQPATFLARSPHVGVKDVECGEGHFCHDNQTCCRDNRQGWACCPYRQGVCCADRRHCCPAGFRCAARGTKCLRREAPRWDAPLRDPALRQLL
modifications: left off: a dimerising Fc or GST
notes: glutathione S-transferase (GST) fused to the C-terminal segment of PGRN (amino acids 495 to the end), produced in E. coli
B2: in experiment [7], the “pull-down of Sort1 (anti-sortilin immunoblot)” value is listed as “immunoreactive Sort1 band was detected”.
